# According to patent US11643670B2, “Methods of enhancing chromosomal homologous recombination” (Massachusetts Institute of Technology, priority 2018, dated 2023):
# B1: G151D: recombinant RAD51 gain-of-function mutant with increased strand exchange activity, SEQ ID NO: 8 (protein)
# chain: MAMQMQLEANADTSVEEESFGPQPISRLEQCGINANDVKKLEEAGFHTVEAVAYAPKKELINIKGISEAKADKILTESRSVARLECNSVILVYCTLRLSGSSDSPASASRVVGTTGGIETGSITEMFGEFRTGKTQICHTLAVTCQLPIDRDGGEGKAMYIDTEGTFRPERLLAVAERYGLSGSDVLDNVAYARAFNTDHQTQLLYQASAMMVESRYALLIVDSATALYRTDYSGRGELSARQMHLARFLRMLLRLADEFGVAVVITNQVVAQVDGAAMFAADPKKPIGGNIIAHASTTRLYLRKGRGETRICKIYDSPCLPEAEAMFAINADGVGDAKD
# Test system: maternal Chd2 locus
# Assay: Donor-free interchromosomal homologous recombination (ICHR) in IVF-derived Chd2^R1684H/+ embryos
# Assay type: cell-based, mouse
# Protocol: tracrRNA, crRNAs, and ssODNs were synthesized by Integrated DNA Technologies (TABLE 1). All injection mixtures were prepared in a final volume of 50 μL according to the following methodology: Using RNase-free water, reagents, and consumables, crRNA (final concentration 0.61 μM), tracrRNA (final concentration 0.61 μM), and ultrapure Tris-HCl, pH 7.39 (final concentration 10 mM, ThermoFisher) were mixed and incubated at 95° C. for 5 minutes. The mixtures were cooled to room temperature for 10 minutes on the benchtop, and then, EnGen Cas9-NLS S. pyogenes (New England Biolabs) was added to a final concentration of 30 ng/μL. The mixtures were incubated at 37° C. for 15 minutes before adding any remaining components: ssODN (final concentration 3 ng/μL or 30 ng/μL), RAD51 (Creative Biomart, final concentration 10 ng/μL). Injection mixtures were stored on ice and briefly heated to 37° C. prior to injection. For experiments utilizing RS-1, embryos were cultured in KSOM-AA (EMD Millipore MR-121-D) with […] RS-1 (Sigma) dissolved in DMSO or DMSO (Sigma, 1:1000) for 24 hours, washed, and cultured in EmbryoMax FHM HEPES Buffered Medium (Sigma) until collection for genotyping.
# For experiments using wildtype recombinant proteins, the following proteins were used: RAD51 (Creative Biomart RAD51-134H), USP1/WDR48 (Creative Biomart USP1&WDR48-1067H), BCCIP (Origene TP303061), XRCC1 (TP304952), XRCC4 (Origene TP312684), DMC1 (Origene TP318311). For experiments using mutant RAD51, custom RAD51 preparations were produced by Creative Biomart according to their standard protocol for producing the wildtype RAD51 used in all other experiments. Mutant DNA sequences used for cloning are described in TABLE 2. All RAD51 mutants were modeled in human RAD51 transcript variant 4 (NCBI accession NM_001164269), as this is the transcript variant of the wildtype RAD51-134H protein used in all other experiments.
# In vitro fertilization was performed using FERTIUP® Mouse Preincubation Medium and CARD MEDIA (Kyudo Company) according to the manufacturer's protocol. Non-virgin Chd2^R1684H/R1684H males that were >8 weeks old were used as sperm donors. Following IVF, embryos were cultured for 8 hours and then injected using the PNI protocol described below.
# For all experiments except those described in FIG. 6, the male pronucleus was injected. Injections performed for the CPI portion of FIG. 6 were targeted to the cytoplasm. All microinjections were performed using a Narishige Micromanipulator, Nikon Eclipse TE2000-S microscope, and Eppendorf 5242 microinjector. Individual zygotes were injected with 1-2 pL of injection mixture using an “automatic” injection mode set according to needle size and adjusted for clear increase in pronuclear volume. Following injections, cells were cultured in KSOM-AA until collection for genotyping. For experiments giving rise to F0 animals, embryos were surgically implanted into pseudopregnant CD-1 females (Charles River Laboratories, Strain Code 022) 24-hours post-injection and allowed to develop normally until natural birth.
# Embryos were collected at morula-to-blastocyst stage in 4 μL nuclease-free water. After collection, 4 μL of 2× embryo digestion buffer was added to each sample (final concentrations: 125 μg/mL proteinase K, 100 mM Tris-HCl pH 8.0, 100 mM KCl, 0.02% gelatin, 0.45% Tween-20, 60 μg/mL yeast tRNA) and embryos were lysed for 1 hour at 56° C. Proteinase K was inactivated via incubation at 95° C. for 10 minutes and DNA was stored at −20° C. until use.
# Chd2^R1684H genotyping was performed via a two-step, nested approach. Except for experiments described in FIGS. 3A-3G, all 8 μL of embryo DNA were used as input for the initial, long round of PCR. Genotyping of mouse pups and adult animals was performed using 2 μL of purified tail DNA. For all embryo genotyping, reactions mixtures were set up in a UV-sterilized laminar flow hood using sterile reagents and filter tips to avoid contamination. […]
# [1] = compared to embryos injected with wildtype RAD51
molecule,measurement,setting,value
B1,efficiency of ICHR stimulation,,~100%
same,indel-to-ICHR ratio (level),,near zero
same,indel events,27 injected zygotes,not a single indel event was identified
same,apparent editing efficiency,blastocysts from Cas9/crRNA/tracrRNA-injected embryos,22%
same,ICHR rate compared with baseline (Cas9-only embryos),"co-injected with Cas9/crRNA/tracrRNA, no donor",ICHR was observed in all edited cells
same,indel-to-ICHR ratio,compared to control embryos,drastic decrease
same,overall indel rate,compared to control embryos,drastic decrease
same,indel-to-ICHR ratio,[1],significant decreases
same,overall indel rate,[1],significant decreases
